# Measured values from US12630600B2 (MEDIMMUNE LIMITED, priority 2022, dated 2026).
# Starred links: 1 amine or outer side, 2 acyl side, 3 side chain; linkers in the order of their positions; H or OH if unused. Non-standard residues stand in square brackets, D forms with d. Groups on a side chain read outwards from the residue. No end group written: not given here. *: point of attachment. C18 diacid = O=C(O)CCCCCCCCCCCCCCCCC(=O)*; γGlu = O=C(O)[C@H](CCC(=O)[*:2])N[*:1]; αMeF = C[C@](N)(Cc1ccccc1)C(=O)O; AEEA = NCCOCCOCC(=O)O; Aib = CC(C)(N)C(=O)O
# B1: Peptide 144 (peptide)
# peptide: H[Aib]QGTFTSDVSK[αMeF]LDSK([γGlu-γGlu-AEEA-AEEA-γGlu-γGlu-C18 diacid])RARDFVRWLLE[Aib]G-OH
# modifications: N-terminus assumed
# SMILES: CC(C)C[C@H](NC(=O)[C@H](Cc1c[nH]c2ccccc12)NC(=O)[C@H](CCCNC(=N)N)NC(=O)[C@@H](NC(=O)[C@H](Cc1ccccc1)NC(=O)[C@H](CC(=O)O)NC(=O)[C@H](CCCNC(=N)N)NC(=O)[C@H](C)NC(=O)[C@H](CCCNC(=N)N)NC(=O)[C@H](CCCCNC(=O)CC[C@H](NC(=O)CC[C@H](NC(=O)COCCOCCNC(=O)COCCOCCNC(=O)CC[C@H](NC(=O)CC[C@H](NC(=O)CCCCCCCCCCCCCCCCC(=O)O)C(=O)O)C(=O)O)C(=O)O)C(=O)O)NC(=O)[C@H](CO)NC(=O)[C@H](CC(=O)O)NC(=O)[C@H](CC(C)C)NC(=O)[C@](C)(Cc1ccccc1)NC(=O)[C@H](CCCCN)NC(=O)[C@H](CO)NC(=O)[C@@H](NC(=O)[C@H](CC(=O)O)NC(=O)[C@H](CO)NC(=O)[C@@H](NC(=O)[C@H](Cc1ccccc1)NC(=O)[C@@H](NC(=O)CNC(=O)[C@H](CCC(N)=O)NC(=O)C(C)(C)NC(=O)[C@@H](N)Cc1c[nH]cn1)[C@@H](C)O)[C@@H](C)O)C(C)C)C(C)C)C(=O)N[C@@H](CC(C)C)C(=O)N[C@@H](CCC(=O)O)C(=O)NC(C)(C)C(=O)NCC(=O)O
# B2: Peptide 142 (peptide)
# peptide: H[Aib]QGTFTSDVSK[αMeF]LDSK([AEEA-AEEA-γGlu-C18 diacid])RARDFVAWLLE[Aib]G-OH
# modifications: N-terminus assumed
# SMILES: CC(C)C[C@H](NC(=O)[C@H](Cc1c[nH]c2ccccc12)NC(=O)[C@H](C)NC(=O)[C@@H](NC(=O)[C@H](Cc1ccccc1)NC(=O)[C@H](CC(=O)O)NC(=O)[C@H](CCCNC(=N)N)NC(=O)[C@H](C)NC(=O)[C@H](CCCNC(=N)N)NC(=O)[C@H](CCCCNC(=O)COCCOCCNC(=O)COCCOCCNC(=O)CC[C@H](NC(=O)CCCCCCCCCCCCCCCCC(=O)O)C(=O)O)NC(=O)[C@H](CO)NC(=O)[C@H](CC(=O)O)NC(=O)[C@H](CC(C)C)NC(=O)[C@](C)(Cc1ccccc1)NC(=O)[C@H](CCCCN)NC(=O)[C@H](CO)NC(=O)[C@@H](NC(=O)[C@H](CC(=O)O)NC(=O)[C@H](CO)NC(=O)[C@@H](NC(=O)[C@H](Cc1ccccc1)NC(=O)[C@@H](NC(=O)CNC(=O)[C@H](CCC(N)=O)NC(=O)C(C)(C)NC(=O)[C@@H](N)Cc1c[nH]cn1)[C@@H](C)O)[C@@H](C)O)C(C)C)C(C)C)C(=O)N[C@@H](CC(C)C)C(=O)N[C@@H](CCC(=O)O)C(=O)NC(C)(C)C(=O)NCC(=O)O
# B3: Peptide 143 (peptide)
# peptide: H[Aib]QGTFTSDVSK[αMeF]LDSK([AEEA-AEEA-γGlu-C18 diacid])RARDFVQWLLE[Aib]G-OH
# modifications: N-terminus assumed
# SMILES: CC(C)C[C@H](NC(=O)[C@H](Cc1c[nH]c2ccccc12)NC(=O)[C@H](CCC(N)=O)NC(=O)[C@@H](NC(=O)[C@H](Cc1ccccc1)NC(=O)[C@H](CC(=O)O)NC(=O)[C@H](CCCNC(=N)N)NC(=O)[C@H](C)NC(=O)[C@H](CCCNC(=N)N)NC(=O)[C@H](CCCCNC(=O)COCCOCCNC(=O)COCCOCCNC(=O)CC[C@H](NC(=O)CCCCCCCCCCCCCCCCC(=O)O)C(=O)O)NC(=O)[C@H](CO)NC(=O)[C@H](CC(=O)O)NC(=O)[C@H](CC(C)C)NC(=O)[C@](C)(Cc1ccccc1)NC(=O)[C@H](CCCCN)NC(=O)[C@H](CO)NC(=O)[C@@H](NC(=O)[C@H](CC(=O)O)NC(=O)[C@H](CO)NC(=O)[C@@H](NC(=O)[C@H](Cc1ccccc1)NC(=O)[C@@H](NC(=O)CNC(=O)[C@H](CCC(N)=O)NC(=O)C(C)(C)NC(=O)[C@@H](N)Cc1c[nH]cn1)[C@@H](C)O)[C@@H](C)O)C(C)C)C(C)C)C(=O)N[C@@H](CC(C)C)C(=O)N[C@@H](CCC(=O)O)C(=O)NC(C)(C)C(=O)NCC(=O)O
# Molecular target: human GLP-1 receptor (human, UniProt P43220)
# Experiment: cell-based or functional assay
row,"cAMP production, hGLP-1R EC50 (pM)",Binder
1,45.2 pM,B1
2,59.4 pM,B2
3,19.1 pM,B3

# Molecular target: human glucagon receptor (human, UniProt P47871)
# Experiment: cell-based or functional assay
row,"cAMP production, hGluc-R EC50 (pM)",Binder
1,702 pM,B1
2,108 pM,B2
3,32.6 pM,B3
